# Values quoted from earlier work as cited in patent US20250326839A1, “TREATMENT OF DISEASES RELATED TO COLONY-STIMULATING FACTOR 1 RECEPTOR DYSFUNCTION USING TREM2 AGONISTS” (Vigil Neuroscience, Inc., priority 2020, published 2025).
# Where a chain is given by its changes, count along the chain named. In names and notes the source's numbering stands.
# T1: TREM2 (Homo sapiens, UniProt Q9NZC2)
# T1 sequence (Q9NZC2 19-230): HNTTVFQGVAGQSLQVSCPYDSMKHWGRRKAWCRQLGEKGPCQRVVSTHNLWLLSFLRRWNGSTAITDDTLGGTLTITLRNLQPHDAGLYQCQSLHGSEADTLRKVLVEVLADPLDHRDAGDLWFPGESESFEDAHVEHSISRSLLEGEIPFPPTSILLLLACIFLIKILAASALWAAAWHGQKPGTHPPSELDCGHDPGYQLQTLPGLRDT
# B1: V49: 6E7 variant: VH T30N, I50T, Y60L, Q99S; VL L54R, F94Y (antibody, V domains shown)
# VH: EVQLVQSGAEVKKPGESLKISCKGSGYSFNSYWIAWVRQMPGKGLEWMGTIYPGDSDTRLSPSFQGQVTISADKSISTAYLQWSSLKASDTAMYFCARSRTFYYDSSDYFDYWGQGTLVTVSS
# VL: DIQMTQSPSSVSASVGDRVTITCRASQGISSWLAWYQQKPGKAPKLLIYAASSRQNGVPSRFSGSGSGTDFTLTISSLQPEDFATYFCQQADSYPRTFGQGTKLEIK
# B2: V76: 6E7 variant: VH T30G, S63E, F110S; VL N56K (antibody, V domains shown)
# VH: B1 VH with N30G, T50I, L60Y, S63E, S99Q, F110S
# VL: B1 VL with R54L, N56K, T69R, Y94F
# B3: V86: 6E7 variant: VH T30G, I34L, Q65E, Q99S; VL L54R (antibody, V domains shown)
# VH: B1 VH with N30G, I34L, T50I, L60Y, Q65E
# VL: B1 VL with Y94F
# B4: V63: 6E7 variant: VH T30R, Q99S; VL N56R, S93R (antibody, V domains shown)
# VH: B1 VH with N30R, T50I, L60Y
# VL: B1 VL with R54L, N56R, S93R, Y94F
# B5: V62: 6E7 variant: VH T30G, S61A, D108G; VL N56R, Q89G (antibody, V domains shown)
# VH: B1 VH with N30G, T50I, L60Y, S61A, S99Q, D108G
# VL: B1 VL with R54L, N56R, Q89G, Y94F
# B6: V73: 6E7 variant: VH T30G, S63G, Q99G; VL L54R, F94Y (antibody, V domains shown)
# VH: B1 VH with N30G, T50I, L60Y, S63G, S99G
# VL: B1 VL
# B7: V74: 6E7 variant: VH T30A, T58V, Q99G; VL N56L (antibody, V domains shown)
# VH: B1 VH with N30A, T50I, T58V, L60Y, S99G
# VL: B1 VL with R54L, N56L, Y94F
# B8: V61: 6E7 variant: VH T30S, S61N, Q99G; VL Q55V, F94L (antibody, V domains shown)
# VH: B1 VH with N30S, T50I, L60Y, S61N, S99G
# VL: B1 VL with R54L, Q55V, Y94L
# B9: V64: 6E7 variant: VH T30Q, Q99G; VL Q55A, F94Y (antibody, V domains shown)
# VH: B1 VH with N30Q, T50I, L60Y, S99G
# VL: B1 VL with R54L, Q55A
# B10: V52: 6E7 variant: VH T30E, Q99G; VL N56R, S93R (antibody, V domains shown)
# VH: B1 VH with N30E, T50I, L60Y, S99G
# VL: B1 VL with R54L, N56R, S93R, Y94F
# B11: V85: 6E7 variant: VH T30R, I50T, Q99S; VL L54R (antibody, V domains shown)
# VH: B1 VH with N30R, L60Y
# VL: B1 VL with Y94F
# B12: V51: 6E7 variant: VH T58V, Q99G, Y112N; VL L54R (antibody, V domains shown)
# VH: B1 VH with N30T, T50I, T58V, L60Y, S99G, Y112N
# VL: B1 VL with Y94F
# B13: V72: 6E7 variant: VH A35G, Q99G; VL Q55V, F94Y (antibody, V domains shown)
# VH: B1 VH with N30T, A35G, T50I, L60Y, S99G
# VL: B1 VL with R54L, Q55V
# B14: V50: 6E7 variant: VH T30G, I50V, F110L; VL L54R, F94L (antibody, V domains shown)
# VH: B1 VH with N30G, T50V, L60Y, S99Q, F110L
# VL: B1 VL with Y94L
# B15: V75: 6E7 variant: VH Q99G; VL N56A, F94Y (antibody, V domains shown)
# VH: B1 VH with N30T, T50I, L60Y, S99G
# VL: B1 VL with R54L, N56A
# B16: V84: 6E7 variant: VH S28G, F110S; VL A50G (antibody, V domains shown)
# VH: B1 VH with S28G, N30T, T50I, L60Y, S99Q, F110S
# VL: B1 VL with A50G, R54L, Y94F
# B17: V60: 6E7 variant: VH S28H, T58V, F110S; VL N56R, Q89G (antibody, V domains shown)
# VH: B1 VH with S28H, N30T, T50I, T58V, L60Y, S99Q, F110S
# VL: B1 VL with R54L, N56R, Q89G, Y94F
# Target: T1, TREM2
# Conditions: cited from earlier work; for Binding Signal (fold over 6E7 parental antibody) 1st screen 110 nM or 10 nM: 10 nM Ab concentration (values not marked *)
Molecule,Binding Signal (fold over 6E7 parental antibody) 1st screen 110 nM or 10 nM,Binding Signal (fold over 6E7 parental antibody) 2nd screen 2 nM,Binding Signal (fold over 6E7 parental antibody) 2nd screen 10 nM
B1,6.51 fold over 6E7 parental antibod,5.02 fold over 6E7 parental antibod,6.58 fold over 6E7 parental antibod
B2,4.57 fold over 6E7 parental antibod,4.34 fold over 6E7 parental antibod,4.93 fold over 6E7 parental antibod
B3,4.80 fold over 6E7 parental antibod,5.17 fold over 6E7 parental antibod,5.02 fold over 6E7 parental antibod
B4,3.76 fold over 6E7 parental antibod,4.91 fold over 6E7 parental antibod,3.71 fold over 6E7 parental antibod
B5,2.49 fold over 6E7 parental antibod,1.87 fold over 6E7 parental antibod,2.89 fold over 6E7 parental antibod
B6,5.12 fold over 6E7 parental antibod,4.17 fold over 6E7 parental antibod,5.44 fold over 6E7 parental antibod
B7,3.94 fold over 6E7 parental antibod,2.54 fold over 6E7 parental antibod,4.01 fold over 6E7 parental antibod
B8,5.08 fold over 6E7 parental antibod,3.63 fold over 6E7 parental antibod,5.22 fold over 6E7 parental antibod
B9,5.41 fold over 6E7 parental antibod,4.88 fold over 6E7 parental antibod,5.48 fold over 6E7 parental antibod
B10,3.00 fold over 6E7 parental antibod,1.78 fold over 6E7 parental antibod,3.09 fold over 6E7 parental antibod
B11,5.41 fold over 6E7 parental antibod,5.41 fold over 6E7 parental antibod,5.37 fold over 6E7 parental antibod
B12,2.81 fold over 6E7 parental antibod,1.83 fold over 6E7 parental antibod,3.18 fold over 6E7 parental antibod
B13,3.64 fold over 6E7 parental antibod,2.50 fold over 6E7 parental antibod,4.01 fold over 6E7 parental antibod
B14,4.10 fold over 6E7 parental antibod,3.39 fold over 6E7 parental antibod,4.16 fold over 6E7 parental antibod
B15,4.64 fold over 6E7 parental antibod,3.74 fold over 6E7 parental antibod,4.52 fold over 6E7 parental antibod
B16,1.44 fold over 6E7 parental antibod,1.45 fold over 6E7 parental antibod,1.62 fold over 6E7 parental antibod
B17,3.26 fold over 6E7 parental antibod,3.35 fold over 6E7 parental antibod,3.63 fold over 6E7 parental antibod
